Measurements from the supplement of paper PMC10567573.

B1: RIT1 (parent)
chain: FHALVREIRRKEKEAVLAMEKKSK

Variants of: B1
Experiment: protein stability index of a GFP-peptide fusion (GPS, HEK-293T) (PSI 1-6); higher = more stable
Conditions: c terminus: a fixed tail appended
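Note: lentivirally expressed fusions sorted by FACS into six bins by GFP to DsRed ratio, PSI derived from sequencing read proportions per bin multiplied by bin number.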

Compared with FHALVREIRRKEKEDVLAMEKKSK [A15D], FHALVREIRRKEKEMVLAMEKKSK [A15M] is lower in protein stability index: 2.3 for the first, 2.17 for the second.

Going from FHALVREIRRKEKEKVLAMEKKSK [A15K] to FHALVREIRRKEKEWVLAMEKKSK [A15W], the protein stability index falls from 2.72 to 2.02.

Going from FHALVREIRRKEKENVLAMEKKSK [A15N] to FHALVREIRRKEKETVLAMEKKSK [A15T], the protein stability index rises from 1.81 to 2.18.

Compared with FHALVREIRRKEKEGVLAMEKKSK [A15G], FHALVREIRRKEKESVLAMEKKSK [A15S] is higher in protein stability index: 1.91 for the first, 2.52 for the second.

Compared with FHALVREIRRKEKEHVLAMEKKSK [A15H], FHALVREIRRKEKEPVLAMEKKSK [A15P] is higher in protein stability index: 2.28 for the first, 2.9 for the second.

First: FHALVREIRRKEKEFVLAMEKKSK [A15F]
Second: FHALVREIRRKEKELVLAMEKKSK [A15L]
The protein stability index of the first is higher: 1.91 for the first, 1.63 for the second.

Compared with FHALVREIRRKEKEIVLAMEKKSK [A15I], FHALVREIRRKEKECVLAMEKKSK [A15C] is higher in protein stability index: 2.05 for the first, 2.1 for the second.

Going from FHALVREIRRKEKERVLAMEKKSK [A15R] to FHALVREIRRKEKEQVLAMEKKSK [A15Q], the protein stability index rises from 1.72 to 2.19.

Going from FHALVREIRRKEKEVVLAMEKKSK [A15V] to FHALVREIRRKEKEEVLAMEKKSK [A15E], the protein stability index falls from 2.4 to 1.58.

Compared with FHALVREIRRKEKEYVLAMEKKSK [A15Y], FHALVREIRRNEKEAVLAMEKKSK [K11N] is lower in protein stability index: 2.12 for the first, 1.45 for the second.

First: FHALVREIRRPEKEAVLAMEKKSK [K11P]
Second: FHALVREIRRLEKEAVLAMEKKSK [K11L]
The protein stability index of the first is higher: 2.46 for the first, 2.16 for the second.

First: FHALVREIRRAEKEAVLAMEKKSK [K11A]
Second: FHALVREIRREEKEAVLAMEKKSK [K11E]
The protein stability index of the first is lower: 1.47 for the first, 2.07 for the second.

First: FHALVREIRRDEKEAVLAMEKKSK [K11D]
Second: FHALVREIRRGEKEAVLAMEKKSK [K11G]
The protein stability index of the first is lower: 1.39 for the first, 2 for the second.

Going from FHALVREIRRHEKEAVLAMEKKSK [K11H] to FHALVREIRRCEKEAVLAMEKKSK [K11C], the protein stability index rises from 2.05 to 2.28.

Compared with FHALVREIRRQEKEAVLAMEKKSK [K11Q], FHALVREIRRREKEAVLAMEKKSK [K11R] is lower in protein stability index: 2.47 for the first, 1.55 for the second.

Going from FHALVREIRRWEKEAVLAMEKKSK [K11W] to FHALVREIRRYEKEAVLAMEKKSK [K11Y], the protein stability index falls from 2.11 to 1.64.

Going from FHALVREIRRFEKEAVLAMEKKSK [K11F] to FHALVREIRRIEKEAVLAMEKKSK [K11I], the protein stability index falls from 1.95 to 1.55.

First: FHALVREIRRTEKEAVLAMEKKSK [K11T]
Second: FHALVREIRRMEKEAVLAMEKKSK [K11M]
The protein stability index of the first is lower: 2.19 for the first, 2.69 for the second.

First: FHALVREIRRVEKEAVLAMEKKSK [K11V]
Second: FHALVREIRRSEKEAVLAMEKKSK [K11S]
The protein stability index of the first is higher: 1.99 for the first, 1.58 for the second.

First: FHALVREIRRKEKEAVGAMEKKSK [L17G]
Second: FHALVREIRRKEKEAVMAMEKKSK [L17M]
The protein stability index of the first is lower: 1.7 for the first, 1.86 for the second.

First: FHALVREIRRKEKEAVPAMEKKSK [L17P]
Second: FHALVREIRRKEKEAVWAMEKKSK [L17W]
The protein stability index of the first is higher: 1.77 for the first, 1.7 for the second.

Compared with FHALVREIRRKEKEAVIAMEKKSK [L17I], FHALVREIRRKEKEAVKAMEKKSK [L17K] is lower in protein stability index: 2.1 for the first, 1.97 for the second.

Compared with FHALVREIRRKEKEAVFAMEKKSK [L17F], FHALVREIRRKEKEAVHAMEKKSK [L17H] is lower in protein stability index: 2.12 for the first, 2.11 for the second.

Going from FHALVREIRRKEKEAVAAMEKKSK [L17A] to FHALVREIRRKEKEAVTAMEKKSK [L17T], the protein stability index rises from 1.85 to 2.21.

First: FHALVREIRRKEKEAVDAMEKKSK [L17D]
Second: FHALVREIRRKEKEAVNAMEKKSK [L17N]
The protein stability index of the first is lower: 1.51 for the first, 2.18 for the second.

FHALVREIRRKEKEAVQAMEKKSK [L17Q] and FHALVREIRRKEKEAVSAMEKKSK [L17S] are the same in protein stability index: 1.88 for the first, 1.88 for the second.

Compared with FHALVREIRRKEKEAVYAMEKKSK [L17Y], FHALVREIRRKEKEAVEAMEKKSK [L17E] is higher in protein stability index: 2.05 for the first, 2.09 for the second.

Going from FHALVREIRRKEKEAVVAMEKKSK [L17V] to FHALVREIRRKEKEAVRAMEKKSK [L17R], the protein stability index rises from 1.47 to 1.9.

Going from FHALVREIRRKEKEAVCAMEKKSK [L17C] to FHALVREIRYKEKEAVLAMEKKSK [R10Y], the protein stability index falls from 2.16 to 1.82.

Going from FHALVREIRRKEKVAVLAMEKKSK [E14V] to FHALVREIRRKEKYAVLAMEKKSK [E14Y], the protein stability index rises from 1.9 to 2.17.

First: FHALVREIRRKEKFAVLAMEKKSK [E14F]
Second: FHALVREIRRKEKPAVLAMEKKSK [E14P]
The protein stability index of the first is higher: 2.15 for the first, 1.73 for the second.

Compared with FHALVREIRRKEKKAVLAMEKKSK [E14K], FHALVREIRRKEKQAVLAMEKKSK [E14Q] is lower in protein stability index: 2.89 for the first, 1.55 for the second.

Going from FHALVREIRRKEKTAVLAMEKKSK [E14T] to FHALVREIRRKEKRAVLAMEKKSK [E14R], the protein stability index falls from 1.93 to 1.84.

Going from FHALVREIRRKEKSAVLAMEKKSK [E14S] to FHALVREIRRKEKWAVLAMEKKSK [E14W], the protein stability index rises from 1.8 to 2.42.

Compared with FHALVREIRRKEKCAVLAMEKKSK [E14C], FHALVREIRRKEKIAVLAMEKKSK [E14I] is higher in protein stability index: 1.58 for the first, 1.85 for the second.

Compared with FHALVREIRRKEKDAVLAMEKKSK [E14D], FHALVREIRRKEKHAVLAMEKKSK [E14H] is higher in protein stability index: 1.41 for the first, 1.96 for the second.

First: FHALVREIRRKEKAAVLAMEKKSK [E14A]
Second: FHALVREIRRKEKNAVLAMEKKSK [E14N]
The protein stability index of the first is higher: 2.29 for the first, 1.62 for the second.

Going from FHALVREIRRKEKGAVLAMEKKSK [E14G] to FHALVREIRRKEKMAVLAMEKKSK [E14M], the protein stability index rises from 1.39 to 2.1.

Going from FHALVREIRRKEFEAVLAMEKKSK [K13F] to FHALVREIRRKENEAVLAMEKKSK [K13N], the protein stability index falls from 2.27 to 2.02.

Going from FHALVREIRRKECEAVLAMEKKSK [K13C] to FHALVREIRRKEDEAVLAMEKKSK [K13D], the protein stability index falls from 2.01 to 1.56.

Going from FHALVREIRRKEYEAVLAMEKKSK [K13Y] to FHALVREIRRKETEAVLAMEKKSK [K13T], the protein stability index falls from 1.81 to 1.77.

First: FHALVREIRRKEVEAVLAMEKKSK [K13V]
Second: FHALVREIRRKEREAVLAMEKKSK [K13R]
The protein stability index of the first is lower: 1.26 for the first, 1.67 for the second.

First: FHALVREIRRKEEEAVLAMEKKSK [K13E]
Second: FHALVREIRRKEAEAVLAMEKKSK [K13A]
The protein stability index of the first is lower: 1.08 for the first, 2.04 for the second.

Going from FHALVREIRRKEGEAVLAMEKKSK [K13G] to FHALVREIRRKEQEAVLAMEKKSK [K13Q], the protein stability index rises from 1.37 to 2.58.

First: FHALVREIRRKELEAVLAMEKKSK [K13L]
Second: FHALVREIRRKEMEAVLAMEKKSK [K13M]
The protein stability index of the first is higher: 3.67 for the first, 1.5 for the second.

First: FHALVREIRRKEPEAVLAMEKKSK [K13P]
Second: FHALVREIRRKEWEAVLAMEKKSK [K13W]
The protein stability index of the first is higher: 2.32 for the first, 1.95 for the second.

Going from FHALVREIRRKEHEAVLAMEKKSK [K13H] to FHALVREIRRKESEAVLAMEKKSK [K13S], the protein stability index rises from 2.38 to 2.42.
